Source: PMC11960969, “Mdga2 deficiency leads to an aberrant activation of BDNF/TrkB signaling that underlies autism-relevant synaptic and behavioral changes in mice” (PLOS Biology, 2025)
One block for each molecule: values may come before it.

Columns and labels:
[1] = target: T1, recombinant TrkB protein (Homo sapiens, UniProt Q16620); assay: Surface plasmon resonance (Biacore CM5, immobilized TrkB); assay type: binding; conditions: SPR, TrkB immobilized on Biacore CM5 chip, analyte at several concentrations, Biacore T100 Evaluation software
T1 construct: Full-length human TrkB or MDGA2 cDNA was cloned into the pcDNA6-His vector; His; made in house; host or cells: HEK293T cells
T1 sequence (Q16620 32-822): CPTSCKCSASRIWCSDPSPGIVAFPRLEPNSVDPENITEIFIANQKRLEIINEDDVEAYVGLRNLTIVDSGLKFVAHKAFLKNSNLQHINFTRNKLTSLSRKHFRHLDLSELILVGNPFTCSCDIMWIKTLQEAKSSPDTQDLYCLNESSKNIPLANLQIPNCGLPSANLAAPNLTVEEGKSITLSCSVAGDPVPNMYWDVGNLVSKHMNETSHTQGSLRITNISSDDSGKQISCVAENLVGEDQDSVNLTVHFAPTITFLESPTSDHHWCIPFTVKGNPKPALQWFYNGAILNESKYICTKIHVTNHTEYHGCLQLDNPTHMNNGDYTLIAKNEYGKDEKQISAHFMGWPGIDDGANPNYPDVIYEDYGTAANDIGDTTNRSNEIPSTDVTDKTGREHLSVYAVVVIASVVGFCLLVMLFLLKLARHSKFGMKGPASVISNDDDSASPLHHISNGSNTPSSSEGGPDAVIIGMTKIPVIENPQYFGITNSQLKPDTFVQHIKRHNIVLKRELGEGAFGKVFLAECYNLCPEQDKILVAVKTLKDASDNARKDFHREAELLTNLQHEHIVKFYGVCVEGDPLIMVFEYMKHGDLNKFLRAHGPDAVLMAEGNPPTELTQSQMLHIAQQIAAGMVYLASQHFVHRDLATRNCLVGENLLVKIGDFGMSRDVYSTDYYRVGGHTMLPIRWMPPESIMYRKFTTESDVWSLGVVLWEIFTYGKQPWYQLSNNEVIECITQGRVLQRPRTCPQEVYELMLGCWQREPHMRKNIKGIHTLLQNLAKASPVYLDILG
Protocol: (§1) Fig 3 MDGA2 interacts with TrkB and suppresses TrkB activity. (A) Primary hippocampal neurons derived from Mdga2^ +/− (Het) mice and their wild-type (WT) littermates at DIV 7 were treated with different doses of BDNF for 30 min. Equal amounts of protein lysates were subjected to immunoprecipitation (IP) with an anti-TrkB antibody, followed by immunoblotting with an anti-phosphotyrosine (pTyr) antibody or the anti-TrkB antibody. The pTyr levels were quantified by densitometry, normalized to total TrkB levels, and then compared to those of WT controls. n = 3 per group. (B) WT mouse brain lysates were subjected to IP with an anti-MDGA2 antibody and a control IgG, and immunoblotted (IB) for the components indicated. mBDNF, mature BDNF; ImBDNF, immature BDNF. […] Immunoprecipitated TrkB levels were quantified by densitometry, normalized to input levels, and compared to respective controls (set to one arbitrary units). n = 3 per group. […] Levels of phosphorylated proteins were quantified by densitometry, normalized to respective total protein levels and compared to controls (set to one arbitrary units). n = 6 per group. […] P-values were determined by two-tailed unpaired Student t-test in (A) and one-way ANOVA with Tukey’s multiple comparisons test in (H, I, J). *p < 0.05, **p < 0.01, ***p < 0.001, ns: not significant. […]

[2] = test system: BDNF-TrkB interaction; assay: BDNF-TrkB Co-IP (anti-BDNF or anti-TrkB) in primary neurons / brain of Het, KO, WT and in WT neurons transfected with MDGA2 or ΔMAM; assay type: cell-based, mouse; conditions: IP anti-BDNF, Fig 3I
Protocol: as §1

[3] = test system: TrkB signaling (pTrkB, pAkt, pmTOR); assay: Immunoblotting of TrkB/Akt/mTOR phosphorylation in primary neurons transfected with MDGA2, ΔMAM or V930I; assay type: cell-based, mouse; conditions: for pAkt level normalized to total protein / pTrkB level normalized to total protein / pmTOR level normalized to total protein: KO neurons transfected, WT/Ctrl set to one
Protocol: Fig 3 MDGA2 interacts with TrkB and suppresses TrkB activity. (A) Primary hippocampal neurons derived from Mdga2^ +/− (Het) mice and their wild-type (WT) littermates at DIV 7 were treated with different doses of BDNF for 30 min. Equal amounts of protein lysates were subjected to immunoprecipitation (IP) with an anti-TrkB antibody, followed by immunoblotting with an anti-phosphotyrosine (pTyr) antibody or the anti-TrkB antibody. The pTyr levels were quantified by densitometry, normalized to total TrkB levels, and then compared to those of WT controls. n = 3 per group. (B) WT mouse brain lysates were subjected to IP with an anti-MDGA2 antibody and a control IgG, and immunoblotted (IB) for the components indicated. mBDNF, mature BDNF; ImBDNF, immature BDNF. (C) Hippocampal neurons from WT mice at DIV 7 were immunostained with antibodies against MDGA2 (red) and TrkB (green), and then counter-stained with DAPI (blue). Images were acquired by a confocal microscope. Scale bar: 10 μm. (D) Surface plasmon resonance (SPR) analysis of the binding between recombinant MDGA2 protein and recombinant TrkB protein. TrkB was immobilized on a Biacore CM5 chip and tested for its binding with MDGA2 at the concentrations indicated. (E) Computer simulation of the binding mode of TrkB and MDGA2. The predicted binding domain of TrkB (the d5 domain) is highlighted by a red square and labeled in brown. The predicted binding domain of MDGA2 (the MAM domain) is highlighted by a red square and labeled in yellow. (F) HEK293T cells were co-transfected with TrkB-Flag and GFP-tagged full-length MDGA2 (MDGA2-GFP) or an MDGA2 deletion fragment lacking the entire MAM domain (ΔMAM-GFP). Cell lysates were subjected to IP with control IgG and antibodies against Flag or GFP, and immunoblotted for the components indicated. […] The scheme of MDGA2-ΔMAM is also shown. (G) HeLa cells were co-transfected with TrkB that is tagged with the N-terminal Venus fragment (TrkB-VN) and full-length MDGA2 or MDGA2-ΔMAM that are tagged with the C-terminal Venus fragment (MDGA2-VC or ΔMAM-VC) for 24 h. After immunostaining with antibodies against MDGA2/MDGA2-ΔMAM (pink) and TrkB (red), cells were observed by confocal microscopy. Venus signal (green) indicates the interaction between MDGA2 and TrkB. Schematic diagrams depicting the BiFC assay are also shown. Scale bars: 10 μm. (H, I) Equal amounts of protein lysates from primary neurons derived from Het, KO, and their WT littermate mice (H), and from WT primary neurons transfected with GFP control, MDGA2-GFP or ΔMAM-GFP (I) were subjected to IP with IgG and an anti-BDNF antibody, and then immunoblotted for the components indicated. Immunoprecipitated TrkB levels were quantified by densitometry, normalized to input levels, and compared to respective controls (set to one arbitrary units). n = 3 per group. (J) Neurons derived from KO mice were transfected with GFP control (Ctrl), MDGA2-GFP, or MDGA2-ΔMAM-GFP, and neurons derived from their WT littermates were transfected with GFP control (Ctrl). Equal amounts of protein lysates were subjected to immunoblotting for the proteins indicated. Levels of phosphorylated proteins were quantified by densitometry, normalized to respective total protein levels and compared to controls (set to one arbitrary units). n = 6 per group. Data represent mean ± SEM. P-values were determined by two-tailed unpaired Student t-test in (A) and one-way ANOVA with Tukey’s multiple comparisons test in (H, I, J). *p < 0.05, **p < 0.01, ***p < 0.001, ns: not significant. The data underlying this figure can be found in S1 Data, specifically in the sheet labeled “Figure 3”.
Fig 7 The autism spectrum disorder (ASD)-associated MDGA2 V930I mutation impairs the MDGA2-TrkB interaction and MDGA2’s inhibitory effect on the tyrosine kinase B (TrkB) signaling. (A) Schematic depiction of the WT human MDGA2 and its V930I mutation constructs that are tagged with GFP. […]

[4] = test system: TrkB (TrkB-VN); assay: BiFC assay in HeLa cells (TrkB-VN with MDGA2-VC or ΔMAM-VC); assay type: cell-based, human; conditions: 24 h, Venus fluorescence
Protocol: as §1

[5] = test system: TrkB; assay: Co-IP of endogenous MDGA2 and TrkB from WT mouse brain lysates; assay type: binding
[6] = test system: ASD animal models; conditions: cited from earlier work
[7] = test system: TrkB; assay: BDNF-induced TrkB tyrosine phosphorylation in primary hippocampal neurons (IP anti-TrkB, immunoblot pTyr); assay type: cell-based, mouse; conditions: primary hippocampal neurons DIV 7, 30 min; Mdga2+/- and Mdga2-/- vs WT neurons; Fig 3A, S3A
Protocol: as §1

Kd [1]: 24.4 nM
B1: MDGA2: MAM domain containing glycosylphosphatidylinositol anchor 2; full-length human, recombinant or transfected (protein, UniProt Q7Z553 1-956, looked up)
chain: MDLLYGLVWLLTVLLEGISGQGVYAPPTVRIVHSGLACNIEEERYSERVYTIREGETLELTCLVTGHPRPQIRWTKTAGSASDRFQDSSVFNETLRITNIQRHQGGRYYCKAENGLGSPAIKSIRVDVYYLDDPVVTVHQSIGEAKEQFYYERTVFLRCVANSNPPVRYSWRRGQEVLLQGSDKGVEIYEPFFTQGETKILKLKNLRPQDYANYSCIASVRNVCNIPDKMVSFRLSNKTASPSIKLLVDDPIVVNPGEAITLVCVTTGGEPAPSLTWVRSFGTLPEKTVLNGGTLTIPAITSDDAGTYSCIANNNVGNPAKKSTNIIVRALKKGRFWITPDPYHKDDNIQIGREVKISCQVEAVPSEELTFSWFKNGRPLRSSERMVITQTDPDVSPGTTNLDIIDLKFTDFGTYTCVASLKGGGISDISIDVNISSSTVPPNLTVPQEKSPLVTREGDTIELQCQVTGKPKPIILWSRADKEVAMPDGSMQMESYDGTLRIVNVSREMSGMYRCQTSQYNGFNVKPREALVQLIVQYPPAVEPAFLEIRQGQDRSVTMSCRVLRAYPIRVLTYEWRLGNKLLRTGQFDSQEYTEYAVKSLSNENYGVYNCSIINEAGAGRCSFLVTGKAYAPEFYYDTYNPVWQNRHRVYSYSLQWTQMNPDAVDRIVAYRLGIRQAGQQRWWEQEIKINGNIQKGELITYNLTELIKPEAYEVRLTPLTKFGEGDSTIRVIKYSAPVNPHLREFHCGFEDGNICLFTQDDTDNFDWTKQSTATRNTKYTPNTGPNADRSGSKEGFYMYIETSRPRLEGEKARLLSPVFSIAPKNPYGPTNTAYCFSFFYHMYGQHIGVLNVYLRLKGQTTIENPLWSSSGNKGQRWNEAHVNIYPITSFQLIFEGIRGPGIEGDIAIDDVSIAEGECAKQDLATKNSVDGAVGILVHIWLFPIIVLISILSPRR
modifications: full-length GFP tag in some constructs
notes: MAM domain containing glycosylphosphatidylinositol anchor 2; full-length human, recombinant or transfected
interaction between BDNF and TrkB upon overexpression [2]: attenuated the interaction between BDNF and TrkB
pAkt level normalized to total protein ([3]; replicate 1): 1.48 arbitrary units
pTrkB level normalized to total protein ([3]; replicate 1): 1.52 arbitrary units
pmTOR level normalized to total protein ([3]; replicate 1): 0.88 arbitrary units
pAkt level normalized to total protein ([3]; replicate 2): 1.42 arbitrary units
pTrkB level normalized to total protein ([3]; replicate 2): 1.19 arbitrary units
pmTOR level normalized to total protein ([3]; replicate 2): 1.02 arbitrary units
pAkt level normalized to total protein ([3]; replicate 3): 1.72 arbitrary units
pTrkB level normalized to total protein ([3]; replicate 3): 1.31 arbitrary units
pmTOR level normalized to total protein ([3]; replicate 3): 1.26 arbitrary units
pAkt level normalized to total protein ([3]; replicate 4): 1.9 arbitrary units
pTrkB level normalized to total protein ([3]; replicate 4): 1.16 arbitrary units
pmTOR level normalized to total protein ([3]; replicate 4): 1.35 arbitrary units
pAkt level normalized to total protein ([3]; replicate 5): 1.87 arbitrary units
pTrkB level normalized to total protein ([3]; replicate 5): 1.08 arbitrary units
pmTOR level normalized to total protein ([3]; replicate 5): 1.92 arbitrary units
pAkt level normalized to total protein ([3]; replicate 6): 1.07 arbitrary units
pTrkB level normalized to total protein ([3]; replicate 6): 1.03 arbitrary units
pmTOR level normalized to total protein ([3]; replicate 6): 1.41 arbitrary units
overactivation of TrkB signaling (pTrkB, pAkt, pmTOR) upon expression ([3]; Mdga2-/- neurons, Fig 3J, n = 6): could be reversed upon the expression of full-length MDGA2
interaction with TrkB (BiFC) [4]: could interact with full-length MDGA2
interaction of endogenous MDGA2 (Co-IP) ([5]; IP anti-MDGA2, Fig 3B): immunoprecipitated TrkB and NLGN1 but not mBDNF or ImBDNF
interaction of endogenous MDGA2 (Co-IP) ([5]; IP anti-TrkB, S3C Fig): specifically immunoprecipitated MDGA2 but not MDGA1

B2: brain-derived neurotrophic factor (protein)
chain: APMKEVNVHGQGNLAYPGVRTHGTLESVNGPRAGSRGLTTTSLADTFEHVIEELLDEDQKVRPNEENHKDADLYTSRVMLSSQVPLEPPLLFLLEEYKNYLDAANMSMRVRRHSDPARRGELSVCDSISEWVTAADKKTAVDMSGGTVTVLEKVPVSKGQLKQYFYETKCNPMGYTKEGCRGIDKRHWNSQCRTTQSYVRALTMDSKKRIGWRFIRIDTSCVCTLTIKRGR
repetitive self-grooming behavior and anxiety-like behavior ([6]; overexpression of BDNF, neonatally isolated rats): rescued repetitive self-grooming behavior and anxiety-like behavior
social deficits ([6]; valproic acid-exposed mice): attenuated social deficits in valproic acid-exposed mice
Phosphorylation of TrkB induced by BDNF [7]: showed a dose-dependent manner and was much stronger in Mdga2^ +/− and Mdga2^−/− neurons than in WT neurons
